# Assay results reported in the supplement of paper PMC5998384.
# Legend:
# HeLa Kyoto [1] = test: solubility change mitosis vs G1/S (difference of NP-40 vs SDS log2 ratios) (log2 ratio difference); higher = more soluble in mitosis
# HeLa Kyoto [2] = test: melting temperature (median over replicates), in situ; higher = more thermally stable
# HeLa Kyoto [3] = test: solubility in G1/S (NP-40 vs SDS abundance) (log2 ratio); higher = more soluble; conditions: cell cycle stage: G1/S
# HeLa Kyoto [4] = test: thermal stability score vs G1/S (z-score of summed log2 fold changes over temperatures); higher = more thermally stable than in G1/S
# [5] = cell cycle stage: early G1 (4.5 h after nocodazole release)
# 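For melting temperature (median over replicates), in situ in this document: HeLa Kyoto cells synchronized by double thymidine or nocodazole block, proteins quantified by TMT10plex mass spectrometry, three independent biological replicates.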
# 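For solubility change mitosis vs G1/S (difference of NP-40 vs SDS log2 ratios) in this document: synchronized HeLa Kyoto cells (double thymidine block for G1/S, nocodazole release for mitosis), protein amounts in NP-40 versus SDS lysates quantified by mass spectrometry, three biological replicates.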
# 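For solubility in G1/S (NP-40 vs SDS abundance) in this document: HeLa Kyoto cells arrested at G1/S by double thymidine block, proteins quantified by TMT10plex mass spectrometry in mild NP-40 versus SDS extracts, three biological replicates.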
# 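For thermal stability score vs G1/S (z-score of summed log2 fold changes over temperatures) in this document: synchronized HeLa Kyoto cells, proteins quantified by TMT10plex mass spectrometry, three biological replicates, mitosis taken 0.5 h after nocodazole release, G1/S directly after double thymidine block.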
# Sequence of ALDH16A1 (chain, as listed by the source): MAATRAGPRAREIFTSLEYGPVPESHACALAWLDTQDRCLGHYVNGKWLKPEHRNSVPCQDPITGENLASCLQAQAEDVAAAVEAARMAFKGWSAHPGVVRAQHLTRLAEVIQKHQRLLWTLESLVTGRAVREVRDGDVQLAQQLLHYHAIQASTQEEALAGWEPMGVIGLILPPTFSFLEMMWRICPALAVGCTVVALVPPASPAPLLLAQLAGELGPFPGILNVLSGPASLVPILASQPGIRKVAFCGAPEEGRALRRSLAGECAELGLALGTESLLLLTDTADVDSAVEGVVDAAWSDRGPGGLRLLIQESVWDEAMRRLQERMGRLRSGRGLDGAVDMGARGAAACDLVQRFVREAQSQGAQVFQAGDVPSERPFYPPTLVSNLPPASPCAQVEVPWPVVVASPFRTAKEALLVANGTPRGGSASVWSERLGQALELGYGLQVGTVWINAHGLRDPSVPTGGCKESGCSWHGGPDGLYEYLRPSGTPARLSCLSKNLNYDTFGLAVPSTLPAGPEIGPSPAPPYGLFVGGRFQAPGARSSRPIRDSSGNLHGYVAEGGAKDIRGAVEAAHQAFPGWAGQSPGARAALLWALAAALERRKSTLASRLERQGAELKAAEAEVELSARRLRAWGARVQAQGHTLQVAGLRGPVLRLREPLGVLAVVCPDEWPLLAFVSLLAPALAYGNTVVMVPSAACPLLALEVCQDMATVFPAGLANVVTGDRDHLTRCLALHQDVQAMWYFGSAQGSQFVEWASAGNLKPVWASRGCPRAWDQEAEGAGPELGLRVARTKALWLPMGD
Substance,solubility change mitosis (log2) (HeLa Kyoto [1]),melting temperature (HeLa Kyoto [2]; cell cycle stage: G1/S) [°C],melting temperature (HeLa Kyoto [2]; cell cycle stage: mitosis) [°C],solubility in G1/S (log2) (HeLa Kyoto [3]),thermal stability score (HeLa Kyoto [4]; [5]),thermal stability score (HeLa Kyoto [4]; cell cycle stage: mitosis)
MASERLPNRPACLLVASGAAEGVSAQSFLHCFTMASTAFNLQVATPGGKAMEFVDVTESNARWVQDFRLKAYASPAKLESIDGARYHALLIPSCPGALTDLASSGSLARILQHFHSESKPICAVGHGVAALCCATNEDRSWVFDSYSLTGPSVCELVRAPGFARLPLVVEDFVKDSGACFSASEPDAVHVVLDRHLVTGQNASSTVPAVQNLLFLCGSRK [PDDC1],-0.0189,55,55.4,0.169,-1.01,-0.729
MLSRSRCVSRAFSRSLSAFQKGNCPLGRRSLPGVSLCQGPGYPNSRKVVINNSVFSVRFFRTTAVCKDDLVTVKTPAFAESVTEGDVRWEKAVGDTVAEDEVVCEIETDKTSVQVPSPANGVIEALLVPDGGKVEGGTPLFTLRKTGAAPAKAKPAEAPAAAAPKAEPTAAAVPPPAAPIPTQMPPVPSPSQPPSGKPVSAVKPTVAPPLAEPGAGKGLRSEHREKMNRMRQRIAQRLKEAQNTCAMLTTFNEIDMSNIQEMRARHKEAFLKKHNLKLGFMSAFVKASAFALQEQPVVNAVIDDTTKEVVYRDYIDISVAVATPRGLVVPVIRNVEAMNFADIERTITELGEKARKNELAIEDMDGGTFTISNGGVFGSLFGTPIINPPQSAILGMHGIFDRPVAIGGKVEVRPMMYVALTYDHRLIDGREAVTFLRKIKAAVEDPRVLLLDL [DLST],-0.0493,61.7,65.9,0.0922,-2.5,-3.04
MAQPGPASQPDVSLQQRVAELEKINAEFLRAQQQLEQEFNQKRAKFKELYLAKEEDLKRQNAVLQAAQDDLGHLRTQLWEAQAEMENIKAIATVSENTKQEAIDEVKRQWREEVASLQAVMKETVRDYEHQFHLRLEQERTQWAQYRESAEREIADLRRRLSEGQEEENLENEMKKAQEDAEKLRSVVMPMEKEIAALKDKLTEAEDKIKELEASKVKELNHYLEAEKSCRTDLEMYVAVLNTQKSVLQEDAEKLRKELHEVCHLLEQERQQHNQLKHTWQKANDQFLESQRLLMRDMQRMEIVLTSEQLRQVEELKKKDQEDDEQQRLNKRKDHKKADVEEEIKIPVVCALTQEESSAQLSNEEEHLDSTRGSVHSLDAGLLLPSGDPFSKSDNDMFKDGLRRAQSTDSLGTSGSLQSKALGYNYKAKSAGNLDESDFGPLVGADSVSENFDTASLGSLQMPSGFMLTKDQERAIKAMTPEQEETASLLSSVTQGMESAYVSPSGYRLVSETEWNLLQKEVHNAGNKLGRRCDMCSNYEKQLQGIQIQEAETRDQVKKLQLMLRQANDQLEKTMKDKQELEDFIKQSSEDSSHQISALVLRAQASEILLEELQQGLSQAKRDVQEQMAVLMQSREQVSEELVRLQKDNDSLQGKHSLHVSLQQAEDFILPDTTEALRELVLKYREDIINVRTAADHVEEKLKAEILFLKEQIQAEQCLKENLEETLQLEIENCKEEIASISSLKAELERIKVEKGQLESTLREKSQQLESLQEIKISLEEQLKKETAAKATVEQLMFEEKNKAQRLQTELDVSEQVQRDFVKLSQTLQVQLERIRQADSLERIRAILNDTKLTDINQLPET [RABEP1],-0.0841,51,50.4,0.412,-1,-0.882
MAAAAAAGEARRVLVYGGRGALGSRCVQAFRARNWWVASVDVVENEEASASIIVKMTDSFTEQADQVTAEVGKLLGEEKVDAILCVAGGWAGGNAKSKSLFKNCDLMWKQSIWTSTISSHLATKHLKEGGLLTLAGAKAALDGTPGMIGYGMAKGAVHQLCQSLAGKNSGMPPGAAAIAVLPVTLDTPMNRKSMPEADFSSWTPLEFLVETFHDWITGKNRPSSGSLIQVVTTEGRTELTPAYF [QDPR],-0.0466,55.5,55.5,0.236,-1.31,-0.994
MASLDRVKVLVLGDSGVGKSSLVHLLCQNQVLGNPSWTVGCSVDVRVHDYKEGTPEEKTYYIELWDVGGSVGSASSVKSTRAVFYNSVNGIIFVHDLTNKKSSQNLRRWSLEALNRDLVPTGVLVTNGDYDQEQFADNQIPLLVIGTKLDQIHETKRHEVLTRTAFLAEDFNPEEINLDCTNPRYLAAGSSNAVKLSRFFDKVIEKRYFLREGNQIPGFPDRKRFGAGTLKSLHYD [RABL3],-0.0274,52,51.9,0.0735,-0.0942,-1.09
MTSKQAMSSNEQERLLCYNGEVLVFQLSKGNFADKEPTKTPILHVRRMVFDRGTKVFVQKSTGFFTIKEENSHLKIMCCNCVSDFRTGINLPYIVIEKNKKNNVFEYFLLILHSTNKFEMRLSFKLGYEMKDGLRVLNGPLILWRHVKAFFFISSQTGKVVSVSGNFSSIQWAGEIENLGMVLLGLKECCLSEEECTQEPSKSDYAIWNTKFCVYSLESQEVLSDIYIIPPAYSSVVTYVHICATEIIKNQLRISLIALTRKNQLISFQNGTPKNVCQLPFGDPCAVQLMDSGGGNLFFVVSFISNNACAVWKESFQVAAKWEKLSLVLIDDFIGSGTEQVLLLFKDSLNSDCLTSFKITDLGKINYSSEPSDCNEDDLFEDKQENRYLVVPPLETGLKVCFSSFRELRQHLLLKEKIISKSYKALINLVQGKDDNTSSAEEKECLVPLCGEEENSVHILDEKLSDNFQDSEQLVEKIWYRVIDDSLVVGVKTTSSLKLSLNDVTLSLLMDQAHDSRFRLLKCQNRVIKLSTNPFPAPYLMPCEIGLEAKRVTLTPDSKKEESFVCEHPSKKECVQIITAVTSLSPLLTFSKFCCTVLLQIMERESGNCPKDRYVVCGRVFLSLEDLSTGKYLLTFPKKKPIEHMEDLFALLAAFHKSCFQITSPGYALNSMKVWLLEHMKCEIIKEFPEVYFCERPGSFYGTLFTWKQRTPFEGILIIYSRNQTVMFQCLHNLIRILPINCFLKNLKSGSENFLIDNMAFTLEKELVTLSSLSSAIAKHESNFMQRCEVSKGKSSVVAAALSDRRENIHPYRKELQREKKKMLQTNLKVSGALYREITLKVAEVQLKSDFAAQKLSNL [FANCB],-0.0928,53.7,53.8,-0.208,1.37,0.274
MMKLRHKNKKPGEGSKGHKKISWPYPQPAKQNGKKATSKVPSAPHFVHPNDHANREAELKKKWVEEMREKQQAAREQERQKRRTIESYCQDVLRRQEEFEHKEEVLQELNMFPQLDDEATRKAYYKEFRKVVEYSDVILEVLDARDPLGCRCFQMEEAVLRAQGNKKLVLVLNKIDLVPKEVVEKWLDYLRNELPTVAFKASTQHQVKNLNRCSVPVDQASESLLKSKACFGAENLMRVLGNYCRLGEVRTHIRVGVVGLPNVGKSSLINSLKRSRACSVGAVPGITKFMQEVYLDKFIRLLDAPGIVPGPNSEVGTILRNCVHVQKLADPVTPVETILQRCNLEEISNYYGVSGFQTTEHFLTAVAHRLGKKKKGGLYSQEQAAKAVLADWVSGKISFYIPPPATHTLPTHLSAEIVKEMTEVFDIEDTEQANEDTMECLATGESDELLGDTDPLEMEIKLLHSPMTKIADAIENKTTVYKIGDLTGYCTNPNRHQMGWAKRNVDHRPKSNSMVDVCSVDRRSVLQRIMETDPLQQGQALASALKNKKKMQKRADKIASKLSDSMMSALDLSGNADDGVGD [GNL3L],0.334,48.1,50.3,-0.846,3.18,4.42
MAAAVAAAGRLGWLFAALCLGNAAGEAAPGPRVLGFCLEEDGAAGAGWVRGGAARDTPDATFLLRLFGPGFANSSWSWVAPEGAGCREEAASPAGEWRALLRLRLRAEAVRPHSALLAVRVEPGGGAAEEAAPPWALGLGAAGLLALAALARGLQLSALALAPAEVQVLRESGSEAERAAARRLEPARRWAGCALGALLLLASLAQAALAVLLYRAAGQRAVPAVLGSAGLVFLVGEVVPAAVSGRWTLALAPRALGLSRLAVLLTLPVALPVGQLLELAARPGRLRERVLELARGGGDPYSDLSKGVLRCRTVEDVLTPLEDCFMLDASTVLDFGVLASIMQSGHTRIPVYEEERSNIVDMLYLKDLAFVDPEDCTPLSTITRFYNHPLHFVFNDTKLDAVLEEFKRGKSHLAIVQKVNNEGEGDPFYEVLGLVTLEDVIEEIIRSEILDESEDYRDTVVKRKPASLMAPLKRKEEFSLFKVSDDEYKVTISPQLLLATQRFLSREVDVFSPLRISEKVLLHLLKHPSVNQEVRFDESNRLATHHYLYQRSQPVDYFILILQGRVEVEIGKEGLKFENGAFTYYGVSALTVPSSVHQSPVSSLQPIRHDLQPDPGDGTHSSAYCPDYTVRALSDLQLIKVTRLQYLNALLATRAQNLPQSPENTDLQVIPGSQTRLLGEKTTTAAGSSHSRPGVPVEGSPGRNPGV [CNNM3],-0.00872,52.3,51.3,0.0405,-0.222,-0.298
MEGGGGRDEPSACRAGDVNMDDPKKEDILLLADEKFDFDLSLSSSSANEDDEVFFGPFGHKERCIAASLELNNPVPEQPPLPTSESPFAWSPLAGEKFVEVYKEAHLLALHIESSSRNQAAQAAKPEDPRSQGVERFIQESKLKINLFEKEKEMKKSPTSLKRETYYLSDSPLLGPPVGEPRLLASSPALPSSGAQARLTRAPGPPHSAHALPRESCTAHAASQAATQRKPGTKLLLPRAASVRGRSIPGAAEKPKKEIPASPSRTKIPAEKESHRDVLPDKPAPGAVNVPAAGSHLGQGKRAIPVPNKLGLKKTLLKAPGSTSNLARKSSSGPVWSGASSACTSPAVGKAKSSEFASIPANSSRPLSNISKSGRMGPAMLRPALPAGPVGASSWQAKRVDVSELAAEQLTAPPSASPTQPQTPEGGGQWLNSSCAWSESSQLNKTRSIRRRDSCLNSKTKVMPTPTNQFKIPKFSIGDSPDSSTPKLSRAQRPQSCTSVGRVTVHSTPVRRSSGPAPQSLLSAWRVSALPTPASRRCSGLPPMTPKTMPRAVGSPLCVPARRRSSEPRKNSAMRTEPTRESNRKTDSRLVDVSPDRGSPPSRVPQALNFSPEESDSTFSKSTATEVAREEAKPGGDAAPSEALLVDIKLEPLAVTPDAASQPLIDLPLIDFCDTPEAHVAVGSESRPLIDLMTNTPDMNKNVAKPSPVVGQLIDLSSPLIQLSPEADKENVDSPLLKF [GTSE1],0.505,49,50.3,0.351,0.104,-0.0609
ALDH16A1,-0.043,58,56.3,0.152,-4.57,-4.01
MGQGPRSPHKVGRRFPAGGKRGRGAKGSGRPLPGRKRQPWPPPDGRSEPAPDSHPHLSPEALGYFRRALSALKEAPETGEERDLMVHNIMKEVETQALALSTNRTGSEMLQELLGFSPLKPLCRVWAALRSNLRTVACHRCGVHVLQSALLQLPRLLGSAAEEEEEEEEDGKDGPTETLEELVLGLAAEVCDDFLVYCGDTHGSFVVRTLLQVLGGTILESERARPRGSQSSEAQKTPAQECKPADFEVPETFLNRLQDLSSSFLKDIAVFITDKISSFCLQVALQVLHRKLPQFCAHLCNAVIGYLSTRGSSVDGSPLLLFLRDQTSSRLLEQVLLVLEPPRLQSLFEEHLQGQLQTLAAHPIANFPLQRLLDAVTTPELLSPVFEELSPVLEAVLAQGHPGVVIALVGACRRVGAYQAKVLQLLLEAFHCAEPSSRQVACVPLFATLMAYEVYYGLTEEEGAVPAEHQVAMAAARALGDVTVLGSLLLQHLLHFSTPGLVLRSLGALTGPQLLSLAQSPAGSHVLDAILTSPSVTRKLRRRVLQNLKGQYVALACSRHGSRVLDAIWSGAALRARKEIAAELGEQNQELIRDPFGHHVARNVALTTFLKRREAWEQQQGAVAKRRRALNSILED [NOP9],0.2,49.1,49.1,-0.0623,0.433,0.684
